From the supplement of paper PMC9170038

Test system: MS2 coat protein
Assay: apparent KD of MS2 coat protein; designed switch direction (-1 OFF switch, 1 ON switch): 1; higher = weaker reporter binding
Procedure, shortened: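 Apparent KD, taken as the median over clusters for each design, was obtained by curve-fitting normalised cluster fluorescence. Designed RNA switches had been transcribed on Illumina chips by stalled E. coli RNA polymerase and titrated with SNAP-549-labelled MS2 coat protein, doubling from 0.7 or 1.5 nM to 3 µM.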

[1] = input ligand: microRNA oligo, concentration not stated
[2] = Eterna round: R95, input ligand: FMN 200 uM
[3] = Eterna round: R95, input ligand: microRNA oligo, concentration not stated
[4] = Eterna round: R95, input ligand: none

Sequence	apparent KD of MS2 coat protein (input ligand: FMN 200 uM)	apparent KD of MS2 coat protein [1]	apparent KD of MS2 coat protein (input ligand: none)	apparent KD of MS2 coat protein [2]	apparent KD of MS2 coat protein [3]	apparent KD of MS2 coat protein [4]
GAGCCAGUCCGAGGAUAUUCAUAUUAAAACAUGAGGAUCACCCAUGUAGGCUCAGAAGAGCCUUGGGAGAAGGCGGACUGGCUC [Xeonanisa] (Eterna round: R96, puzzle: Same State NG 2)	23.3 nM	214 nM	366 nM			
GAGGAACAUGAGGAUCACCCAUGUAAAGGGUUUAAAGGAUAUUAUUGGGAGAAAGUAGGGUAAGAAGGUUGAUUGG [JR_SS1_Sub087] (puzzle: Same State 1)				120 nM	127 nM	168 nM
GAGGGACAGACCAACAUGAGGAUCACCCAUGUCCUCGCAGGUCAGGAUAUUAUGAGGAUCACCCAUGAGAAGGGACGGUGAACC (Eterna round: R96, puzzle: Same State NG 3)	587 nM	340 nM	491 nM			
GAGUAGUUGAAAGGAUAUAGAUUAUUGUAGGAUCUAGAAGGUUCUAACAUGAGGAUCACCCAUGUAGGACUAUUCCUGUGUAUC [Parity 88 - Jieux - Same State NG 1] (Eterna round: R96, puzzle: Same State NG 1)	9.56 nM	9.27 nM	12.6 nM			
GAGUGACAUGAGGAUCACCCAUGUAGAAUAGAACAAGGAUAUGUGGAAGGCGGAGGAGAGACAGAAGGUGUUGAGG [JR_SS1_Sub058] (puzzle: Same State 1)				52 nM	77.1 nM	119 nM
GAGUGGUAAAGAGGAUAUGCAUUGUUAUUCACUGUAGAAGGUUUUAACAUGAGGAUCACCCAUGUAGGACUAUUCCUGUGUUUU [Parity 61 - Jieux - Same State NG 1] (Eterna round: R96, puzzle: Same State NG 1)	12.4 nM	12.4 nM	18.8 nM			
GAGUGGUGGAGAGGAUAUACAUUGAUAAUCACUGUAGAAGGUUCUAACAUGAGGAUCACCCAUGUAGGACUAUUCCUGAGAGUU [Parity 53 - Jieux - Same State NG 1] (Eterna round: R96, puzzle: Same State NG 1)	11.6 nM	9.89 nM	12 nM			
GAGUUACUAUCUCAGGAUAUCAUGUCAAAGACAUGAGGAUCACCCAUGUACCAGGAAACUGGUUAUGAGAAGGGAGAUAGUAACG [Mat - Same State 2 - Mod - D52] (puzzle: Same State 2)				112 nM	116 nM	154 nM
GCAAACACAUGAGGAUCACCCAUGUGGAAAGAGCAAUUAGGCUAGGAUAUUCAUGUCGUUUGCAAGAAGAAGGAGCCAUAGUGG [Eternabot solution 20] (Eterna round: R96, puzzle: Same State NG 3)		205 nM				
GCAGCACAUGAGGAUCACCCAUGUCUUCGGAGUCGAGGAUAUGGUCACUGUAAACAGUGGCCAGAAGGCGAGUUGC [SS1 - Son of Teenbexe v5] (puzzle: Same State 1)					24.3 nM	
GCAGCCGGCACUGAGGAUAUUCAUAUUAAAACAUGAGGAUCACCCAUGUAGGCCAGAAGGCCUUGGGAGAAGGCAGGUCGGCUGG [Mat - Same State 2 - Mod of UCT - D63] (puzzle: Same State 2)				20.8 nM	219 nM	232 nM
GCAGGACGGUAAAACAUCUCACAUGAGGAUCACCCAUGUUGUGAGGAUAUGGAUCCUAAUUGGAUCCAGAAGGCACGGUCCUGC [Fiskers NG3ss - 30] (Eterna round: R96, puzzle: Same State NG 3)	24.9 nM	17.7 nM	27.8 nM			
GCAGUACAUGAGGAUCACCCAUGUCUCUAAAGUCGAGGAUAUGGGCAGGUUAUAUCCGAACCAGAAGGCGAACUGC [SS1 Teenbexe 11] (puzzle: Same State 1)				68.6 nM	260 nM	527 nM
GCAUCACAUGAGGAUCACCCAUGUCUUCGGAGUGGAGGAUAUGGUCACUGUAAACAGUGGCCAGAAGGCCGGAUGC [SS1 - Son of Teenbexe v2] (puzzle: Same State 1)					63.3 nM	
GCCAACGCAUGAGGAUAUGGCACCUUAUUGGUGCCAGAAGGCGUGUGUAUUCACAUGAGGAUCACCCAUGUAUUAUAGUUGGCA [Fiskers NG1ss - 16] (Eterna round: R96, puzzle: Same State NG 1)	24.1 nM	169 nM	189 nM			
GCCCAGAGUAUAUGGGUACAAGCUUUUUGACAUGAGGAUCACCCAUGUACUCGUCUUAUGUGCAGUCCGUAGACUGC [JL-shm-2.19 Brourd mod] (puzzle: Sensor for hsa-mir-208a)				18.2 nM	27.3 nM	17.4 nM
GCCGCGUUUAACGCCUACAUGAGGAUCACCCAUGUAUGUAGGCAGGAUAUCGUUUGCUUUGCAAACGAGAAGGGCUGUAGUGGC [salish99_SSNG3_R04_006] (Eterna round: R96, puzzle: Same State NG 3)	25.9 nM	73.9 nM	80.9 nM			
GCCGCGUUUCGCGCCUACAUGAGGAUCACCCAUGUUUGUAGGCAGGAUAUCGUUUGCUUUGCGGGCGAGAAGGGCUGUUGUGGC [salish99_SSNG3_R04_017] (Eterna round: R96, puzzle: Same State NG 3)	35 nM	28.9 nM	38.8 nM			
GCCGCGUUUCGCGCCUACAUGAGGAUCACCCAUGUUUGUCGGCAGGAUAUCGUCCGCUCUGCGGGCGAGAAGGGCUAUUGUGGU [salish99_SSNG3_R04_027] (Eterna round: R96, puzzle: Same State NG 3)	28.8 nM	17 nM	24.5 nM			
GCGAGCGUACUUGCAACAUGAGGAUCACCCAUGUUAACUGGACAGGAUAUGGUACCGUUUCGGUACCAGAAGGGUUCCUUCAUG [JL SSNG3 3.60] (Eterna round: R96, puzzle: Same State NG 3)	167 nM	166 nM	268 nM			
GCGAGCGUACUUGCUACAUGAGGAUCACCCAUGUUUACUGGACAGGAUAUGGUACCGUUUCGGUACCAGAAGGGUUCAUCAUGU [JL SSNG3 3.69] (Eterna round: R96, puzzle: Same State NG 3)	278 nM	248 nM	597 nM			
GCGGAACAUGAGGAUCACCCAUGUGGAGGGUGUAAAGGAUAUUAUAGAGAGAAGGUAGGGUAAGAAGGUUGCUGGG [JR_SS1_Sub090] (Eterna round: R96, puzzle: Same State 1)	899 nM	582 nM	994 nM			
GCGGAACAUGAGGAUCACCCAUGUGGAGGGUGUAAAGGAUAUUAUAGAGAGAAGGUAGGGUAAGAAGGUUGCUGGG [JR_SS1_Sub090] (puzzle: Same State 1)				624 nM	320 nM	592 nM
GCGGAGACGUCAGGAUAUCCAUGGAAGACACAUGAGGAUCACCCAUGUGGGAGGGAAACCAGGAGGGAGAAGGGACGGAAACGC [ssng2 v2 d] (Eterna round: R96, puzzle: Same State NG 2)	10 nM	9.63 nM	14.1 nM			
GCGGAGAGGUAAGGAUAUCCAUGGCAUAGACAUGAGGAUCACCCAUGUAGGAGACGAAUUAGGAGGGAGAAGGUACCGGGACGC [AK SSNG2-V2-19.1] (Eterna round: R96, puzzle: Same State NG 2)	120 nM	81.2 nM	179 nM			
GCGUGAGAGAUAGGAUAUCGUGUACCUACAUGUGACAUGAGGAUCACCCAUGUGGUAAGUAUGAGCGAGAAGGAUCCGAUAUGU [salish99_SSNG2_r04_1003] (Eterna round: R96, puzzle: Same State NG 2)	28.2 nM	54.7 nM	63.5 nM			
GCUACCAAAGAAGCCAACAUGAGGAUCACCCAUGUAUGUUGGCAGGAUAUCGAUUGCAAAGCGAUCGAGAAGGGCUAAGGUAGC [Mat - Same State NG 3 - JL Mod - D88] (Eterna round: R96, puzzle: Same State NG 3)	147 nM	214 nM	204 nM			
GCUACCAAAUAAGCCAACAUGAGGAUCACCCAUGUAUGUUGGUAGGAUAUCGUAUGCAAAGCAUACGAGAAGGGCUAAGGUAGC [Mat - Same State NG 3 - JL Mod - D80] (Eterna round: R96, puzzle: Same State NG 3)	57.1 nM	40.4 nM	52.5 nM			
GCUACCAAUAAAGCCAACAUGAGGAUCACCCAUGUAUGUUGGUAGGAUAUCGUUUGCAAAGCAAACGAGAAGGGCUAAGGUAGC [Mat - Same State NG 3 - JL Mod - D76] (Eterna round: R96, puzzle: Same State NG 3)	39.1 nM	28.2 nM	43.9 nM			
GCUACCAUUGAAGCCAACAUGAGGAUCACCCAUGUAUGUUGGUAGGAUAUCGUUUGCUUUGCAAACGAGAAGGGCUAAGGUAGC [JL SSNG3 1.27] (Eterna round: R96, puzzle: Same State NG 3)	72.2 nM	57.4 nM	77.1 nM			
